Results from paper PMC8363725, “Mapping the biosynthetic pathway of a hybrid polyketide-nonribosomal peptide in a metazoan” (Nature Communications, 2021).

T1: PKAL-1 (Caenorhabditis elegans, UniProt O02171)
T1 construct: PKAL-1 from C. elegans cDNA library in pET16b-KH01, C-terminal His tag, expressed in E. coli BL21(DE3), Ni resin and Superdex 200
T1 sequence (O02171 1-497): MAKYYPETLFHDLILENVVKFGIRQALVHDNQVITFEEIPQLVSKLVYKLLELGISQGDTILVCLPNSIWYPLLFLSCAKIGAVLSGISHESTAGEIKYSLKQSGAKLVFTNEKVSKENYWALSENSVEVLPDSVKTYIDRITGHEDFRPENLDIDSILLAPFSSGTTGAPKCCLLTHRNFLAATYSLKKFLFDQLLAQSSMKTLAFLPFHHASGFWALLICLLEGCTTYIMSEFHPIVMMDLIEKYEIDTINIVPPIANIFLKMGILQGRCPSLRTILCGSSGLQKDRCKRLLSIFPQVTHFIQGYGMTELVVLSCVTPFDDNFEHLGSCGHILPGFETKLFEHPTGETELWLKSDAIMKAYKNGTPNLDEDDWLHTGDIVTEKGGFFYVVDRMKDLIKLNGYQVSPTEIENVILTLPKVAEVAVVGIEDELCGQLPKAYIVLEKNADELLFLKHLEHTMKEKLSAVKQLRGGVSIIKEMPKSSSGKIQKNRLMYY

B1: PKAL-1 (Caenorhabditis elegans) (protein)
chain: T1 sequence (O02171 1-497)
notes: PKAL-1 from C. elegans cDNA library in pET16b-KH01, C-terminal His tag, expressed in E. coli BL21(DE3), Ni resin and Superdex 200

Key:
PKAL-1 = target: T1, PKAL-1; experiment: enzyme-coupled continuous spectrophotometric assay (NADH); assay type: biochemical; conditions: 4 mM ATP, 10 mM MgCl2, 100 mM hydroxylamine as acceptor, Tris pH 7.4, 22 °C; apparent
purified protein = substrate: CCCCCCCCCCCCCCCC(=O)O; experiment: purified protein; conditions: 4 mM ATP, 10 mM MgCl2, 100 mM hydroxylamine as acceptor, Tris pH 7.4, 22 °C, apparent
[1] = substrate: CCCCCCCCCC(=O)O; experiment: enzyme-coupled continuous spectrophotometric assay (NADH); assay type: biochemical, Caenorhabditis elegans; conditions: 4 mM ATP, 10 mM MgCl2, 100 mM hydroxylamine as acceptor, Tris pH 7.4, 22 °C, apparent
[2] = substrate: CCCCCCCCCCCC(=O)O; experiment: as above; assay type: biochemical, Caenorhabditis elegans; conditions: 4 mM ATP, 10 mM MgCl2, 100 mM hydroxylamine as acceptor, Tris pH 7.4, 22 °C, apparent
[3] = substrate: CCCCCCCCCCCCCC(=O)O; experiment: as above; assay type: biochemical, Caenorhabditis elegans; conditions: 4 mM ATP, 10 mM MgCl2, 100 mM hydroxylamine as acceptor, Tris pH 7.4, 22 °C, apparent

Molecule	Km (PKAL-1)	Km (purified protein)	kcat (purified protein)	Km [1]	kcat [1]	Km [2]	kcat [2]	Km [3]	kcat [3]
CCCCCCCC(=O)O [C8]	C12, which is in turn preferred over C10 and C8								
B1		8.7 ± 0.4 µM	0.0127 ± 0.000484 s⁻¹	411.0 ± 20.2 µM	0.0437 ± 0.00284 s⁻¹	84.6 ± 17.5 µM	0.00943 ± 0.00211 s⁻¹	21.8 ± 2.6 µM	0.03 ± 0.00223 s⁻¹
